Broadly, the EC50 is the concentration giving half of the maximal effect. Lower therefore signals an effect from little substance.

From patent publication US20220298257A1 (ELPIS BIOPHARMACEUTICALS, published 2022) come the findings set out here.

For test [1], the target named is T1, full-length human CD22 fused with flag and Myc tags at the C-terminus, on HEK293 or K562 cells (human, UniProt P20273 20-847).
T1 sequence (looked up): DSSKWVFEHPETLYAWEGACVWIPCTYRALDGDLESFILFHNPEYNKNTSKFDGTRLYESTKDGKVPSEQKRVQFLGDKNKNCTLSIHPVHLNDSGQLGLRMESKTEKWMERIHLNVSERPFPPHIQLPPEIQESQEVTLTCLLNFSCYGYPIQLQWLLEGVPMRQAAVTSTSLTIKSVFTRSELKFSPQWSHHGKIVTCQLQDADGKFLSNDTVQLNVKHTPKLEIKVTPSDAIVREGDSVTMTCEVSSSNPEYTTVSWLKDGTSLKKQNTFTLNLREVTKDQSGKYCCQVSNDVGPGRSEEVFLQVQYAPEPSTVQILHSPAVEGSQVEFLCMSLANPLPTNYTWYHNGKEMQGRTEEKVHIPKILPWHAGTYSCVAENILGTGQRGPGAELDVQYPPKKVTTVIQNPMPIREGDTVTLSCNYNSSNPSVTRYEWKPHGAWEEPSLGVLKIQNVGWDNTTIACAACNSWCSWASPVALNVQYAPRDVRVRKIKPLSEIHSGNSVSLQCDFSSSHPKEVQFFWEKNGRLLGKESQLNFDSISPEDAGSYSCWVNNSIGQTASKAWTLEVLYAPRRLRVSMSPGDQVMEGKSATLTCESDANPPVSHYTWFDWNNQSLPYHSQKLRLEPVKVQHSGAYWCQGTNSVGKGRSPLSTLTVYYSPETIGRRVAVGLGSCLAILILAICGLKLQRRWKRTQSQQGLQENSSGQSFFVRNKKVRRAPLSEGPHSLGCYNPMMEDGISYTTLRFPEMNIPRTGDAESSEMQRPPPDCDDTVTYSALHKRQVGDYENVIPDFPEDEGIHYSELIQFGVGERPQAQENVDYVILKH
Briefly: cell-based or functional assay.

The target in test [2] is T1, full-length human CD22 fused with flag …. Briefly: ELISA, IgG format; antigen format not described. A general note: In an ELISA, binding on a coated surface is turned into a signal by an enzyme label.
Test [3] shares this target. Briefly: FACS, antibody fragment titrated on CD22-expressing cells, anti-His Alexa 488.

B1: M971 IgG antibody (antibody, V domains shown)
VH: QVQLQQSGPGLVKPSQTLSLTCAISGDSVSSNSAAWNWIRQSPSRGLEWLGRTYYRSWYNDYAVSVKSRITINPDTSKNQFSLQLNSVTPEDTAVYYCAREVTGDLEDAFDIWGQGTMVTVSS
VL: DIQMTQSPSSLSASVGDRVTITCRASQTIWSYLNWYQQRPGKAPNLLIYAASSLQSGVPSRFSGRGSGTDFTLTISSLQAEDFATYYCQQSYSIPQTFGQGTKLEIK
notes: Known fully human anti-CD22 antibody used as IgG; also called IgG M971
As for B1, in test [1], the “T½ (Hour) of internalization, CD22/HEK293 cells, pHrodo secondary” value came to 6.07 Hour. In test [2], this molecule came in with an EC50 of 0.059 nM.

B2: EP160-F10 (a single domain antibody) (VHH)
VHH: EVQLVESGGGVVQPGRSLRLSCVASGFTFRNYGMQWVRQTPDKGLEWVAVTAHDGTVQYYVDSVKGRFTISRDNSKDTLYLQMNSLRVADTAVYYCAKEATPRAADHFDYWGQGTLGTVSS
notes: Human VH-only single domain antibody from a human library (not a camelid VHH); not shown: C-terminal flag and 6xHIS tag
On to B2, for which, in test [3], the EC50 stood at 9 nM.
